Experimental data taken from the nanobody polyreactivity screen of Harvey et al. (2022).

Assay: yeast display, Sf9 membrane polyspecificity reagent, FACS + sequencing; frameworks hold sequencing errors
How it was run: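 Using colony PCR, genes from sorted yeast display clones were amplified, then sequenced on MiSeq at 2 × 250 and filtered by CDR length. The clones had been stained with 10% biotinylated, detergent-solubilized Sf9 membrane reagent for 1 hour at 4 °C and sorted by FACS into low and high (top ~1%) gates on anti-HA and streptavidin fluorescence. Polyreactivity labels come from the gate of origin.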

Sequence	polyreactivity (PSR sort gate)
QLQLVESGGGLVLAAGSLRLSCAASGYTFKSYAMGCSRQAPGKERELVAAISNGGNTYYADSVKGRFTISRDNAKNTVYIQMNSLKPEDTAVYYCAARYGYYYSRYDHWGQGTQVTVSS	low polyreactivity
QLQLVESGGGLVPAGGSLRLSCASSGSIFKTYAMGWSRQAPGKDRELVAAIRGSGGSTYYADSVKGRFTIARDYAKNTVYLQMKSLKPEDTAFYYCARVGTKYRTNFFNGNDDWGQGTQVTVSS	low polyreactivity
QLQLVESGGGLVQAGCSLRLICAASGFTFYRNAMGWYRQAPGKEREFVAAISSSGGGTYYADSVKGRFTISRDNAKNTVYLQMNSLKPDDTAVYYCAAKYPQKTTVNSYGNSFYYWGQGTQVTVSS	high polyreactivity
QLQLVESGGGLVQAGGSIRLSCAASGSIFYRYAKGWNRQAPGKESELVAAISSRGGSKYYADSVKARFTISRDNAKNTVYLQMNSLKPEDTAVYYCAARSGGSGGTYGYWGQGPQVTVSS	high polyreactivity
QLQLVESGGGLVQAGGSLLLSCAASGITFPANAMGWYRQAPGKERELVAAITGRGGRTYYADSVKGRFTISRYYAKNTVYLQMISLKPEDTAVYYCNAYLWRVTQNYDYWGQGTQVTVSS	high polyreactivity
QLQLVESGGGLVQAGGSLRITCAASGSTFLTYSMGWYRQAPGKESELVAGISYSTGSTYYADSVKGRFTISRDNAKYTVYLQMNSLKPEDTAVYYCAADEWDCLWYYYYFNYEYWGQGTQVTVSS	low polyreactivity
QLQLVESGGGLVQAGGSLRLISAASGLTFADYAMGWYRQAPGKERELVAAISSNGGSTNYADSVKGRFTISRDNAKNTVYLQMNSLKPEDTAVYYCAARPRNNARFWDYNYWGQGTQVTVSS	high polyreactivity
QLQLVESGGGLVQAGGSLRLSCAASGFIFDSYAMGWYRQAPGKERELVAAISWSGSSTYYADSVKGRFTISRDNAKNTVFLQMNSLKPEDTAVYYCGALVYPYWGGSMYYWGQGTQVTVSS	high polyreactivity
QLQLVESGGGLVQAGGSLRLSCAASGFTFWGYTIGWYRPAPGKERQLVAGITLSGGSTYYADSVKGRFTISRDNAKNTVYLQMNSLKPEDTAVYYCAAKPYQVSSYDFSLRDYWGQGTQVTVSS	low polyreactivity
QLQLVESGGGLVQAGGSLRLSCAASGLIFIYYAMGWYRQAPGKERELVASITNSGGSTYYADSVKGRFTISRDNAKNTVYLQMNSLKPEDTALYYCAADYKTIVQRYGYYYWGQGTQVTVSS	low polyreactivity
QLQLVESGGGLVQAGGSLRLSCAASGLTFNTYAMGWSRQAPAKERELVAAITKGGGRTYYADSVKGRFTISRDNAKNTVYLQMNSLKPEDTAVYYCAVVSWYRYSRYENDYWGQGTQVTVSS	high polyreactivity
QLQLVESGGGLVQAGGSLRLSCAASGLTFSYYAMGWYRQAPGKETELVSAISRGGTTNYADSVKGRFTISRDNAKNTVYLQMNSLKPEDTAVYYCAASYFRRGFYSIYEYDYWGQGTQVTVSS	low polyreactivity
QLQLVESGGGLVQAGGSLRLSCAASGRIFGVYVMGLYRQAPGKERELVAAISWSGSHTYYADSVKGRFTISRDNAKNTVYLQMNSLKPEDTAVYYCNADSYPDYTGPGLDWYDYWGQGTQVTVSS	low polyreactivity
QLQLVESGGGLVQAGGSLRLSCAASGRTFGYNVMGWYRQAPGKERELVAAISSSGGSTYYADSVKGRFTISRDNAKNTVYLQMNSLKPEDTAVYYCAAQVRYYQSGPMYYWGQGTQVTVSS	high polyreactivity
QLQLVESGGGLVQAGGSLRLSCAASGRTFYRNGKGWYIQAPGKERELVATISSGGITNYADSVKGRFTISRDNAKNTVYLQMNSLKPEDTAVYYCNAKKAYYGRGMNYWGQGTQVTVSS	low polyreactivity
QLQLVESGGGLVQAGGSLRLSCAASGRTFYSYAKGWSRPAPGTDRQFVAAISVRGVITYYADSVKGRFTISRDNAKNTVYLQMNSLKPEDTAVDYCAADWSGYYTFDYWGQGTQVTVSS	low polyreactivity
QLQLVESGGGLVQAGGSLRLSCAASGSIFFNYTMGWYRQAPGNERELVAAINSSGGRTNYADSVKGRFTISRDNAKNTVYLQMNSLKPEDTAVYYCAAGQSRYRELEYWGQGTQVTVSS	low polyreactivity
QLQLVESGGGLVQAGGSLRLSCAASGSIFNRYAMGSYRQAPGKERELVAAITRSAARTYYADSVKGRFTISRDNAKTTVYLQMNRLKPEDTAVYYCKAATTPYGYSYYYLGQGTQVTVSS	high polyreactivity
QLQLVESGGGLVQAGGSLRLSCAASGSIFRTNVMGWYRQAPGKERELVAAISRRGGSTYYADSVKGRFTISRDNAKNTVYLQMISLKPEDTAVYYCAASSSAYRDDYWGQGTQVTVSS	high polyreactivity
QLQLVESGGGLVQAGGSLRLSCAASGSIFVTYAMGWYSQAPGKEMELVAAINYSGGSTYYADSVTGRFTISRDNAKNTVYLQMNSLKPEATAVYYCAAAVAVFSFDYPHYYEYEYWGQGTQVTVSS	low polyreactivity
QLQLVESGGGLVQAGGSLRLSCAASGSIFYPYAMGWYRQAPGKERELVATINEDGGSTYYADSVKGRFTISRDNAKNTVYLQMNSLKQEDTAVYYCNTDHFEDYHTDFWSDYEYWGHGTQVTVSS	low polyreactivity
QLQLVESGGGLVQAGGSLRLSCAASGSISAVNTMGWYRQAPRKERELVATISYSTASTYYADSVKGRFTISRDNAKITVYLQINSRKPEDTAFYYCNKDGRRYAYNSEYDHWGQGTQVTVSS	low polyreactivity

Sequence	polyreactivity (PSR sort gate)
QLQLVESGGGLVQAGGSLRLSCAASGSTFPEYVMGWYRQAPAKERELVAAITRRGGRTYYADSVKGRFTISRDNAKNTVYFQMNSLKPEDTAVYYCAAKSAVVVGMDSWGQGTQVTVSS	high polyreactivity
QLQLVESGGGLVQAGGSLRLSCAASGSTFVYNAMGWYRQAPGKERELVAAISTGGSTYYADSVKGRFTISRDNAKNTVYLQMNSLKPEDTAVYYCAAGYSWGYSSQKLRYGYWGQGTQVTVSS	high polyreactivity
QLQLVESGGGLVQAGGSLRLSCAASGSTFVYYAMGWYRPAPGKERELVAGITSSGGSTYYADSVKGRFTISRDNAKNTVYLQMNSLKPEDTAVYYCAAYVWVQQGRYYYWGQGTQVTVSS	low polyreactivity
QLQLVESGGGLVQAGGSLRLSCAASGSTFYAYAMGWYRQAPGKERELVARIRWRGGRTYYADSVKGRFTISRDNAKNTVYLRMNSLKPEDTAVYYCAADLSRAGGGYWGQGTQVTVSS	high polyreactivity
QLQLVESGGGLVQAGGSLRLSCAASGSTFYLYDLGWYIQAPGKESELVAAITSSGGSTYYADSVKGRFTISLDNAKNTVYLQMTSLKPEDTAVYYCAARYRGWVYSYDYWGQGTQVTVSS	low polyreactivity
QLQLVESGGGLVQAGGSLRLSCAPSGSIFYYSAMGWSRQAPGKESEFVAAITRNGGSTYYADSVKGRFTISRDNAKNTVYLQMNSLKPVATAVFYCNAVRVRVTSHRIRQLDYGYWGQGTQVTVSS	low polyreactivity
QLQLVESGGGLVQAGGSLRLSCGASGFTFYVYAMGWSRQAPGKERELVAAISKSGGSTYYADSVKGRFTISRDHATNTVDLQMTSLKPEDTAVYSCAVFDNRSGYRGGHRYNSWGQATQVTVSS	high polyreactivity
QLQLVESGGGLVQAGGSLRLSSAASGFIFDGNAMGGYRQAPGKERELVAAISWDGGTYYADSVKGRFTISRDNAKNTVYLQMNSLKPEDTAVDYCPAEQTQLYSFGWDEYWGQGTQVTVSS	low polyreactivity
QLQLVESGGGLVQAGGSLRLSSAASGITFRGYTMGWYRPAPGKERELVARIRSSDGSTYYADSVKGRFTISRDNAKNTVYLQMNSLKPEDTAVYYCNDDRRGRALKYYSWGQGTQVTVSS	low polyreactivity
QLQLVESGGGLVQAGGSLSLSCAASGSTFDYYDMGWYRQAPGKERELFSYISWSGGSTRYADSVKGRYTISRDNAKNTVYLQMNSLKPEESAVYYCNKSNPDYDRLAIHAFDYWGQGTQLTVSS	low polyreactivity
QLQLVESGGGLVQAGVSLRLSCASSGRIFALYAMGLYSQAPGKERELVAAITWRGGRTRYADSVKGRFTFSRDNAKYTVYLQMNSLKPEDTAVYYCAKEYVKYQWDYGYFGQGTQVTVSS	high polyreactivity
QLQLVESGGRLVQAGGSLRLSCAATGFTFGGYAMGWYRQAPGKESELVARIRRSGGSTYYADSVKGRFTISRDNAKNTVYLQMTSLKPEDTAVYYCAAGYSRGQYRYNYWGQGTQVTVSS	high polyreactivity
QLQLVESGGVIVQAGGSLRLSCAASGITIYYNAMGGYRHAPGQVRELVAAITRSGGSPNYADSVKGRFTISRDNAKNNVYLQMKSLKPEDTAVYSCAKGHLYAGHRHYAYGYWGQGTQVTVSS	low polyreactivity
QLQLVESGRGLVQAGGSLRLRCAASVSTFGANAMGWYRQAPGKESELVATISSGGRTYYADSVKGRFTISRDNAKNTVYLQMNSLKPEDTAVYYCNAGADYTYVYISVYVLYDEWGQGTQVTVSS	low polyreactivity
QLQLVESGRGLVQAGGSLRLSCAASGFTFRTYAKGWYRQAPGKERELVAAITVSGGTYYADSVKGRFTISRDNAKNTVYLQMNSLKPEDTAVYYCTAKRFRTGFDYWGQGTQVTVSS	low polyreactivity
QLQLVESGRGLVQAGGSLRLSCAASGRTFYFYGMGWYRQAPGKERELVASITRGTSTTYADSVKGRFTISRDNAKNTVYFQMNSLKPEDTAVYYCAARAWNYLTSYYIGGYEYWGQGTQVTVSS	low polyreactivity
QLQLVESRGGLVQAGGSLRLSCAASGRIFFSNPMGWYIQAPGKDRELVASMTGGDDTNYADSVKGRFTISRDNAKNTVYLQMNSLKPEDTAVYYCAARAIPSYRWVYRFAPQYDYWGQGTQVTVSS	low polyreactivity
QLQREESGGGLVQAGGSLRLSCAASGRTFTRYAMGWYRQAPVKERELVAAISGGGGSTYYADSVKGRFTISRDNAKITVYLQINSLKPEDTAVYYCNAAARVYSFDYWGQGTQVTVSS	low polyreactivity
QLQREESGGGLVQAGGSLRLSCAASGSTFEKNAMGWYRQAPAKERELVAALSNGVSTYDADSVKGRFPISRDNAKNSVYLLMNSLKPEDTAVYYCAADLFFGAETVYYAKFDYWGQGTQVTVSS	low polyreactivity
QQQLVESDVGLDQAGRSHRLSCAASGFIFAPNAMGWYRQAPGKERELVAAITYRGGGTYYADSVKGRFTISRDNAKNTVYLQMNSLKPEDTAVYYCAAGYDSYYRGSYNYWGQGTQVTVSS	high polyreactivity
QVCLQESGGGLVQACGSLRLSCAASGTISRDIFMGWYRQAPGKEREFVATIAQGGITNYADSVKGRFTISRDNAKNTVYLQMNSVKPGDTAVYYCAARDGNCYWFYYWGQGTQVTVSS	high polyreactivity
